For one data set, the target named is T1, TRAB1 (Oryza sativa, UniProt Q6ZDF3 1-374).
T1 sequence: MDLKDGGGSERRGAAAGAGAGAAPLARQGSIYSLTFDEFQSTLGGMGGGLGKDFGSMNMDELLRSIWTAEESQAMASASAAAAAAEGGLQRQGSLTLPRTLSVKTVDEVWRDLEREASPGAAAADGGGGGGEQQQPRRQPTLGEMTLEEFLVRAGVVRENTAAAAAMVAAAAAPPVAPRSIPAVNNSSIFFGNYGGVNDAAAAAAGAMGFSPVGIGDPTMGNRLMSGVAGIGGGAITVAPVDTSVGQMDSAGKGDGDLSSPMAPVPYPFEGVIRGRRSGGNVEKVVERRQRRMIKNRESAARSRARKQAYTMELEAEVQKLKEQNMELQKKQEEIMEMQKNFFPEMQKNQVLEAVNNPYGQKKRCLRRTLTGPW
Kind of data set: EMSA; Chemiluminescent Nucleic Acid Detection Module Kit (Thermo) per manufacturer; binding buffer, salt, pH and temperature not stated. Conditions: protein: recombinant; tags: His (pCold vector); chain copies: 2; label: biotin. In general terms: Mobility shift assays separate free from complexed probe on a gel.

In the next data set the target is T2, OSBZ8 (Oryza sativa, UniProt Q40645 1-360).
T2 sequence: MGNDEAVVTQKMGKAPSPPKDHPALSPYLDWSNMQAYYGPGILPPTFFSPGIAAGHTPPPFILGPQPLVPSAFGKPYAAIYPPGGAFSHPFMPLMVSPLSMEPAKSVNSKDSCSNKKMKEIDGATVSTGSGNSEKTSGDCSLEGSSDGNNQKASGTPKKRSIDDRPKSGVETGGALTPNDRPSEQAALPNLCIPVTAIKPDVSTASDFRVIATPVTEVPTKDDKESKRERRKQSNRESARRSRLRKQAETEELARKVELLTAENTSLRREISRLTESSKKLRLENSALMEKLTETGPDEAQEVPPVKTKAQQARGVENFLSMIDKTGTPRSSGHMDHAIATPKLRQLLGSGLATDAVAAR
The description is as above. The note with it: protein: recombinant; tags: His (pCold vector); chain copies: 2; label: biotin.

B1: Probe 3 (dsDNA)
DNA 1: GTCATTTTGAGGGGCTGACGTTTGGTGGACAGCGCAGTTT
DNA 2: AAACTGCGCTGTCCACCAAACGTCAGCCCCTCAAAATGAC
On to B1, for which the binding result in the data set with TRAB1 and in the data set with OSBZ8 was “no binding” throughout.

B2: Probe 9 (dsDNA)
DNA 1: TGTGGTTTTGGCTGACGTGGCGCCTACGTGGCGAATTTGACTC
DNA 2: GAGTCAAATTCGCCACGTAGGCGCCACGTCAGCCAAAACCACA
For the molecule B2, the binding result with TRAB1 is reported as “no binding”.

B3: Mutant-9 (dsDNA)
DNA 1: TGTGGTTTTGGCTGGGCGCCTGGCGAATTTGACTC
DNA 2: GAGTCAAATTCGCCAGGCGCCCAGCCAAAACCACA
Take B3: the binding result with OSBZ8 is “no binding”.

B4: Mutant-10 (dsDNA)
DNA 1: TCTTCATCTGGGCATTGATGTGGTGCTTGGCACTTCGA
DNA 2: TCGAAGTGCCAAGCACCACATCAATGCCCAGATGAAGA
Consider B4, for which the binding result with OSBZ8 is given as “no binding”.

B5: Probe 2 (dsDNA)
DNA 1: AGCTTTGAAACATTTTCCACGTTTCATGAACCAACACTCAAT
DNA 2: ATTGAGTGTTGGTTCATGAAACGTGGAAAATGTTTCAAAGCT
As for B5, the binding result with TRAB1 and with OSBZ8 was “no binding” in each case.

B6: Probe 11 (dsDNA)
DNA 1: AATAAAAATGGTGGGACCCACGTGGGCCCCACAAGTCATTCT
DNA 2: AGAATGACTTGTGGGGCCCACGTGGGTCCCACCATTTTTATT
B6: the binding result with TRAB1 is given as “no binding”.

B7: Probe 14 (dsDNA)
DNA 1: AGGAAAAATGGTGGGACCCACGTGGGCCCCACATGTCATCCT
DNA 2: AGGATGACATGTGGGGCCCACGTGGGTCCCACCATTTTTCCT
For B7, the binding result in the data set with TRAB1 is listed as “no binding”.

B8: Probe 5 (dsDNA)
DNA 1: ATAAGACAAGTGGTCAAACGTTGCAAACAAAAACTCAAAA
DNA 2: TTTTGAGTTTTTGTTTGCAACGTTTGACCACTTGTCTTAT
Take B8: the binding result in the data set with TRAB1 and with OSBZ8 was “no binding” each time.

B9: Probe 4 (dsDNA)
DNA 1: TTGAGTTTTTGCTTGCAACGTTTGACCACTCGTCTTATTC
DNA 2: GAATAAGACGAGTGGTCAAACGTTGCAAGCAAAAACTCAA
For B9, the binding result in the data set with TRAB1 and with OSBZ8 was “no binding” each time.

B10: Probe 7 (dsDNA)
DNA 1: TCCTACATACCCTCAGCACGTAAAGCGAGAAGTTTTATCT
DNA 2: AGATAAAACTTCTCGCTTTACGTGCTGAGGGTATGTAGGA
Take B10: the binding result in the data set with TRAB1 and in the data set with OSBZ8 was “no binding” in each case.

B11: Mutant-12 (dsDNA)
DNA 1: AGTCAAATTAGCCAGGCGACCAGCTAAAACCGC
DNA 2: GCGGTTTTAGCTGGTCGCCTGGCTAATTTGACT
For B11, in the data set with OSBZ8, the binding result is given as “no binding”.

B12: Probe 13 (dsDNA)
DNA 1: CTTCATCTGACGTGACACTGACGTGGCGCTTACGTGGCAAGTTGA
DNA 2: TCAACTTGCCACGTAAGCGCCACGTCAGTGTCACGTCAGATGAAG
For the molecule B12, the binding result in the data set with TRAB1 is “no binding”; with OSBZ8, “binds”.

B13: Mutant-14 (dsDNA)
DNA 1: AGGAAAAATGGTGGGACCCGGGCCCCACATGTCATCCT
DNA 2: AGGATGACATGTGGGGCCCGGGTCCCACCATTTTTCCT
On to B13, for which, in the data set with OSBZ8, the binding result is “no binding”.

B14: Mutant-11 (dsDNA)
DNA 1: AATAAAAATGGTGGGACCCGGGCCCCACAAGTCATTCT
DNA 2: AGAATGACTTGTGGGGCCCGGGTCCCACCATTTTTATT
As for B14, the binding result in the data set with OSBZ8 is “no binding”.

B15: Probe 8 (dsDNA)
DNA 1: GATAAGATTGCTCAGCAACGTAATCTTCATAGATCCACTT
DNA 2: AAGTGGATCTATGAAGATTACGTTGCTGAGCAATCTTATC
For the molecule B15, the binding result with TRAB1 and with OSBZ8 was “no binding” each time.

B16: Probe 6 (dsDNA)
DNA 1: TGTGGGACGGAGGGAGTACGTCACAAAAATTATGTTACAA
DNA 2: TTGTAACATAATTTTTGTGACGTACTCCCTCCGTCCCACA
Consider B16, for which the binding result with TRAB1 and with OSBZ8 was “no binding” each time.

B17: Probe 1 (dsDNA)
DNA 1: ATCGTGTTCTTCGCCGGCACGTGGTAATGGGCAGAATCTCC
DNA 2: GGAGATTCTGCCCATTACCACGTGCCGGCGAAGAACACGAT
Take B17: the binding result in the data set with TRAB1 and in the data set with OSBZ8 was “no binding” throughout.

B18: Probe 12 (dsDNA)
DNA 1: AGTCAAATTAGCCACGTAGGCGACACGTCAGCTAAAACCGC
DNA 2: GCGGTTTTAGCTGACGTGTCGCCTACGTGGCTAATTTGACT
As for B18, in the data set with TRAB1, the binding result is on record as “no binding”.

B19: Probe 10 (dsDNA)
DNA 1: TCTTCATCTGACGTGGCATTGATGTGGTGCTTACGTGGCACTTCGA
DNA 2: TCGAAGTGCCACGTAAGCACCACATCAATGCCACGTCAGATGAAGA
On to B19, for which the binding result in the data set with TRAB1 was “no binding”.

B20: Mutant-13 (dsDNA)
DNA 1: CTTCATCTGGACACTGGGCGCTTGGCAAGTTGA
DNA 2: TCAACTTGCCAAGCGCCCAGTGTCCAGATGAAG
In the case of B20, the binding result with OSBZ8 is recorded as “no binding”.

(Values after article PMC7516004, “RICE CENTRORADIALIS 1, a TFL1-like Gene, Responses to Drought Stress and Regulates Rice Flowering Transition”.)
